Data published in the supplement of paper PMC10567573.

B1: INTS3 (parent)
chain: FHPIKETVVEEPVDITPYLDQLDE

Variants of: B1
Test: protein stability index of a GFP-peptide fusion (GPS, HEK-293T) (PSI 1-6); higher = more stable
Conditions: c terminus: a fixed tail appended
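Also: lentivirally expressed fusions sorted by FACS into six bins by GFP to DsRed ratio, PSI derived from sequencing read proportions per bin multiplied by bin number.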

Variant	protein stability index
FHPIKPTVVEEPVDITPYLDQLDE	2.89
FHPIKCTVVEEPVDITPYLDQLDE	1.78
FHPIKDTVVEEPVDITPYLDQLDE	3.77
FHPIKWTVVEEPVDITPYLDQLDE	1.91
FHPIKQTVVEEPVDITPYLDQLDE	2.1
FHPIKETVVEELVDITPYLDQLDE	3.1
FHPIKETVVEEWVDITPYLDQLDE	2.79
FHPIKETVVEEDVDITPYLDQLDE	3.52
FHPIKETVVEENVDITPYLDQLDE	3.57
FHPIKETVVEEIVDITPYLDQLDE	2.93
FHPIKETVVEECVDITPYLDQLDE	3.03
FHPIKETVVEEYVDITPYLDQLDE	2.81
FHPIKETVVEETVDITPYLDQLDE	3.18
FHPIKETVVEEQVDITPYLDQLDE	3.52
FHPIKETVVYEPVDITPYLDQLDE	1.8
FHPIKETVVDEPVDITPYLDQLDE	3.24
FHPIKETVVSEPVDITPYLDQLDE	2.54
FHPIKETVVGEPVDITPYLDQLDE	2.8
FHPIKETVVKEPVDITPYLDQLDE	1.84
FHPIKETVVFEPVDITPYLDQLDE	1.54
FHPIKETVVREPVDITPYLDQLDE	2.1
FHPIKETVVQEPVDITPYLDQLDE	2.99
FHPIKETVVPEPVDITPYLDQLDE	2.98
FHPIKETVVCEPVDITPYLDQLDE	2.19

Variant	protein stability index
FHPIKETVVEEPVDITPYLDQLDH	2.66
FHPIKETVVEEPVDITPYLDQLDM	2.83
FHPIKETVVEEPVDITPYLDQLDA	2.58
FHPIKETVVEEPVDITPYLDQLDI	2.44
FHPIKETVVEEPVDITPYLDQLDW	1.84
FHPIKETVVEEPVDITPYLDQLDP	2.63
FHPIKETVVEEPVDITPYLDQLDV	2.99
FHPIKETVVEEPVDITPYLDQLDR	2.33
FHPIKETVVEEPVDCTPYLDQLDE	3.49
FHPIKETVVEEPVDRTPYLDQLDE	4.13
FHPIKETVVEEPVDVTPYLDQLDE	3.98
FHPIKETVVEEPVDYTPYLDQLDE	3.3
FHPIKETVVEEPVDATPYLDQLDE	3.43
FHPIKETVVEEPVDETPYLDQLDE	4.59
FHPIKETVVEEPVCITPYLDQLDE	3.12
FHPIKETVVEEPVWITPYLDQLDE	1.63
FHPIKETVVEEPVTITPYLDQLDE	3.18
FHPIKETVVEEPVRITPYLDQLDE	2.62
FHPIKETVVEEPVDITPNLDQLDE	3.72
FHPIKETVVEEPVDITPDLDQLDE	3.43
FHPIKETVVEEPVDITPLLDQLDE	3.88
FHPIKETVVEEPVDITPQLDQLDE	3.95
FHPIKETVVEEPVDITPPLDQLDE	3.23
FHPIKETVVEEPVDITPCLDQLDE	3.47

Variant	protein stability index
FHPIKETVVEEPVDITPHLDQLDE	3.5
FHPIKETVVEEPVDITPTLDQLDE	3.71
FHPIKETVVEEPVDITPSLDQLDE	3.77
FFPIKETVVEEPVDITPYLDQLDE	4.86
FTPIKETVVEEPVDITPYLDQLDE	4.62
FMPIKETVVEEPVDITPYLDQLDE	4.87
FYPIKETVVEEPVDITPYLDQLDE	4.63
FDPIKETVVEEPVDITPYLDQLDE	5.42
FHPIKETVVEEPVDITPYHDQLDE	3.18
FHPIKETVVEEPVDITPYRDQLDE	3.14
FHPIKETVVEEPVDITPYSDQLDE	3.98
FHPIKETVVEEPVDITPYGDQLDE	3.32
FHPIKETVVEEPVDITPYMDQLDE	2.86
FHPIKETVVEEPVDITPYPDQLDE	3.88
FHPIKETVVEEPVDITPYVDQLDE	4.03
FHPIKETVVEEPVDITPYFDQLDE	3.02
FHPIKETVVEEPVDITPYADQLDE	3.21
FHPIKETVVEEPVDITPYQDQLDE	2.72
FHPIKETVVEEPVDITPYEDQLDE	4.34
FHPIKETVVEEPVDITPYLEQLDE	3.48
FHPIKETVVEEPVDITPYLTQLDE	2.94
FHPIKETVVEEPVDITPYLRQLDE	2.96
FHPIKETVVEEPVDITPYLSQLDE	3.3
FHPIKETVVEEPVDITPYLMQLDE	2.02

Variant	protein stability index
FHPIKETVVEEPVDITPYLWQLDE	2.14
FHPIKETVVEEPVDITPYLCQLDE	2.49
FHPIKETMVEEPVDITPYLDQLDE	2.95
FHPIKETIVEEPVDITPYLDQLDE	2.88
FHPIKETLVEEPVDITPYLDQLDE	3.56
FHPIKETTVEEPVDITPYLDQLDE	3.53
FHPIKETYVEEPVDITPYLDQLDE	3.06
FHPIKETKVEEPVDITPYLDQLDE	3.49
FHPIKETNVEEPVDITPYLDQLDE	3.59
FHPIKETCVEEPVDITPYLDQLDE	3.76
FHSIKETVVEEPVDITPYLDQLDE	4.03
FHNIKETVVEEPVDITPYLDQLDE	4.63
FHWIKETVVEEPVDITPYLDQLDE	1.73
FHCIKETVVEEPVDITPYLDQLDE	3.23
FHMIKETVVEEPVDITPYLDQLDE	2.9
FHKIKETVVEEPVDITPYLDQLDE	4.82
FHRIKETVVEEPVDITPYLDQLDE	3.76
FHIIKETVVEEPVDITPYLDQLDE	2.66
FHFIKETVVEEPVDITPYLDQLDE	2.52
FHGIKETVVEEPVDITPYLDQLDE	4.49
FHHIKETVVEEPVDITPYLDQLDE	3.56
FHPIKETVVEEPPDITPYLDQLDE	2.43
FHPIKETVVEEPTDITPYLDQLDE	3.8
FHPIKETVVEEPADITPYLDQLDE	3.61

Variant	protein stability index
FHPIKETVVEEPIDITPYLDQLDE	3.4
FHPIKETVVEEPFDITPYLDQLDE	3.05
FHPIKETVVEEPMDITPYLDQLDE	3
FHPIKETVVEEPHDITPYLDQLDE	3.32
FHPIKETVVEEPNDITPYLDQLDE	3.42
FHPIDETVVEEPVDITPYLDQLDE	4.86
FHPIIETVVEEPVDITPYLDQLDE	3.14
FHPIYETVVEEPVDITPYLDQLDE	2.83
FHPIWETVVEEPVDITPYLDQLDE	2.15
FHPILETVVEEPVDITPYLDQLDE	3.87
FHPIGETVVEEPVDITPYLDQLDE	4.4
FHPIPETVVEEPVDITPYLDQLDE	4.29
FHPIEETVVEEPVDITPYLDQLDE	5.06
FHPIKETVVEEPVDITPYLDCLDE	2.55
FHPIKETVVEEPVDITPYLDGLDE	3.56
FHPIKETVVEEPVDITPYLDDLDE	3.51
FHPIKETVVEEPVDITPYLDFLDE	2.55
FHPIKETVVEEPVDITPYLDSLDE	2.82
FHPIKETVVEEPVDITPYLDVLDE	4.05
FHPIKETVVEEPVDITPYLDQMDE	2.57
FHPIKETVVEEPVDITPYLDQQDE	4.11
FHPIKETVVEEPVDITPYLDQFDE	3.03
FHPIKETVVEEPVDITPYLDQSDE	3.13
FHPIKETVVEEPVDITPYLDQRDE	3.71

Variant	protein stability index
FHPIKETVVEEPVDITPYLDQPDE	3.61
FHPIKETVVEEPVDITPYLDQKDE	3.7
FHPIKETVVEEPVDITPYLDQWDE	2.73
FHPIKETVVEEPVDITPYLDQHDE	3.5
FHPIKETVVEEPVDITPYLDQADE	3.9
FHPIKETVVEEPVDITPYLDQDDE	3.62
FHPIKETVVEAPVDITPYLDQLDE	2.73
FHPIKETVVEQPVDITPYLDQLDE	3.53
FHPIKETVVEYPVDITPYLDQLDE	2.51
FHPIKETVVEGPVDITPYLDQLDE	3.19
FHPIKETVVEMPVDITPYLDQLDE	2.93
FHPIKETVVEFPVDITPYLDQLDE	1.92
FHPIKETVVELPVDITPYLDQLDE	2.76
FHPIKETVVEKPVDITPYLDQLDE	3.02
FHPIKETVVEDPVDITPYLDQLDE	3.15
FHPIKETVVESPVDITPYLDQLDE	2.81
FHPIKETVVEEPVDITGYLDQLDE	3.46
FHPIKETVVEEPVDITLYLDQLDE	2.92
FHPIKETVVEEPVDITTYLDQLDE	2.94
FHPIKETVVEEPVDITHYLDQLDE	3.63
FHPIKETVVEEPVDITCYLDQLDE	3.17
FHPIKETVVEEPVDITPYLDQLWE	1.8
FHPIKETVVEEPVDITPYLDQLVE	2.3
FHPIKETVVEEPVDITPYLDQLCE	2.48

Variant	protein stability index
FHPIKETVVEEPVDITPYLDQLME	2.22
FHPIKETVVEEPVDITPYLDQLFE	2.28
FHPIKETVVEEPVDITPYLDQLLE	2.21
FHPIKETVVEEPVDITPYLDQLIE	2.06
FHPIKETVVEEPVDITPYLDQLGE	2.59
FHPIKETVVEEPVDITPYLDQLKE	2.39
FHPIKETVVEEPVDITPYLDQLHE	2.66
FHPIKETVVEEPVDITPYLDQLPE	3.02
FHPIKETVVEEPVDITPYLDQLNE	2.8
FHPIKETVVEEPVDIKPYLDQLDE	3.45
FHPIKETVVEEPVDICPYLDQLDE	3.09
FHPIKETVVEEPVDIAPYLDQLDE	3.91
FHPIKETVVEEPVDIQPYLDQLDE	3.79
FHPIKEKVVEEPVDITPYLDQLDE	2.91
FHPIKEEVVEEPVDITPYLDQLDE	4.19
FHPIKEPVVEEPVDITPYLDQLDE	3.31
FHPIKENVVEEPVDITPYLDQLDE	3.55
FHPIKEMVVEEPVDITPYLDQLDE	3.55
FHPIKEYVVEEPVDITPYLDQLDE	2.88
RHPIKETVVEEPVDITPYLDQLDE	5.18
NHPIKETVVEEPVDITPYLDQLDE	5.47
AHPIKETVVEEPVDITPYLDQLDE	5.42
MHPIKETVVEEPVDITPYLDQLDE	5.23
GHPIKETVVEEPVDITPYLDQLDE	5.5

Variant	protein stability index
FHPLKETVVEEPVDITPYLDQLDE	3.85
FHPNKETVVEEPVDITPYLDQLDE	3.85
FHPCKETVVEEPVDITPYLDQLDE	3.31
FHPSKETVVEEPVDITPYLDQLDE	3.87
FHPYKETVVEEPVDITPYLDQLDE	2.77
FHPWKETVVEEPVDITPYLDQLDE	2.87
FHPMKETVVEEPVDITPYLDQLDE	4.2
FHPFKETVVEEPVDITPYLDQLDE	3.4
FHPTKETVVEEPVDITPYLDQLDE	3.9
FHPDKETVVEEPVDITPYLDQLDE	4.08
FHPIKETVTEEPVDITPYLDQLDE	3.22
FHPIKETVAEEPVDITPYLDQLDE	3.72
FHPIKETVEEEPVDITPYLDQLDE	4.25
FHPIKETVNEEPVDITPYLDQLDE	3.81
FHPIKETVCEEPVDITPYLDQLDE	2.89
FHPIKETVWEEPVDITPYLDQLDE	2
FHPIKETVKEEPVDITPYLDQLDE	3.3
FHPIKETVIEEPVDITPYLDQLDE	3.04
FHPIKETVHEEPVDITPYLDQLDE	3.05
FHPIKETVMEEPVDITPYLDQLDE	3.69
